Measured values as given in article PMC8138767, “Intrinsically disordered substrates dictate SPOP subnuclear localization and ubiquitination activity” (The Journal of Biological Chemistry, 2021).
Values joined by “and” are separate entries in the source; they are usually repeats but may differ in a detail not shown here. Equal values may be shown once. Where no end group is shown, it is not given here.

Key:
SPOP28–359 = biological target: T1, SPOP28–359 (Homo sapiens, UniProt O43791); assay: Competition fluorescence anisotropy, displacement of f-Puc from oligomeric SPOP28–359; type: binding; settings: competition FA; 40 nM f-Puc, 6 μM SPOP28–359; 50 mM sodium phosphate pH 6.5, 50 mM NaCl, 5 mM DTT, 1% BSA, 0.01% Triton X-100; complete competitive binding model; ± standard deviation of three independent replicates (Table S4)
T1 construct: A plasmid encoding His–SUMO–SPOP human residues 28 to 359; His-SUMO (N, cleaved yes); made in house; host or cells: E. coli Rosetta BL-21(DE3)
Source text: An Escherichia coli codon-optimized DNA sequence encoding amino acids 205 to 283 of the human Pdx1 sequence (Pdx1-C) in the multiple cloning site of pET49b(+) was purchased from GeneArt (Thermo Fisher). The pET49b(+) backbone encodes for N-terminal glutathione S-transferase and 6X His tags, followed by a 3C protease recognition motif. In all experiments described herein, a mutant containing an exogenous tryptophan at the N terminus of the human Pdx1-C sequence was used for the purposes of quantitation. Mutations in Pdx1-C were generated by Q5 site-directed mutagenesis (New England Biolabs) with primers designed on NEBbasechanger.com according to the manufacturer protocol. […]
All FA experiments were conducted in 50 mM sodium phosphate, pH 6.5, 50 mM sodium chloride, 5 mM DTT, 1% BSA, and 0.01% Triton X-100. In all experiments, the source of fluorescence signal was f-Puc purchased from GenScript, at a final concentration of 40 nM. […] The fluorescence polarization of each well was measured (from which FA was calculated) using either a TECAN Infinite M1000 Pro or BioTek Synergy 4 fluorometer. […] FA data points were fit to a complete competitive binding model ([23]) to determine dissociation constants using in-house Python scripts (see Quantification and statistical analysis). […]

[1] = biological target: T2, SPOP–MATH (residues 28–166) (Homo sapiens, UniProt O43791); assay: Competition fluorescence anisotropy, displacement of f-Puc from SPOP–MATH; type: binding; settings: competition FA
T2 construct: glutathione S-transferase (GST) (N, cleaved yes); 6X His (N, cleaved yes); made in house; host or cells: E. coli BL-21(DE3)
Source text: An Escherichia coli codon-optimized DNA sequence encoding amino acids 205 to 283 of the human Pdx1 sequence (Pdx1-C) in the multiple cloning site of pET49b(+) was purchased from GeneArt (Thermo Fisher). The pET49b(+) backbone encodes for N-terminal glutathione S-transferase and 6X His tags, followed by a 3C protease recognition motif. In all experiments described herein, a mutant containing an exogenous tryptophan at the N terminus of the human Pdx1-C sequence was used for the purposes of quantitation. Mutations in Pdx1-C were generated by Q5 site-directed mutagenesis (New England Biolabs) with primers designed on NEBbasechanger.com according to the manufacturer protocol. Similarly, an E. coli–optimized DNA sequence encoding residues 28 to 166 of human SPOP (SPOP–MATH) was purchased in pET49b(+) from GeneArt. […] A plasmid encoding His–SUMO–SPOP human residues 28 to 359 harboring a tobacco etch virus protease recognition site directly N terminal to the beginning of the native SPOP protein sequence was generated previously ([21]).
All FA experiments were conducted in 50 mM sodium phosphate, pH 6.5, 50 mM sodium chloride, 5 mM DTT, 1% BSA, and 0.01% Triton X-100. In all experiments, the source of fluorescence signal was f-Puc purchased from GenScript, at a final concentration of 40 nM. For direct FA measurements, SPOP–MATH or SPOP28–359 of concentrations between 0.001 and 300 μM was added to wells of 96- or 384-well plates containing f-Puc and buffer. For competition-mode experiments, serial dilutions of each competitor (Pdx1 peptide or recombinant protein) were prepared ranging from ∼0.01 μM to ∼2 mM (concentration range varied based on peptide solubility) in wells of 96- or 384-well plates containing 40 nM f-Puc and 6 μM SPOP–MATH or SPOP28–359. The fluorescence polarization of each well was measured (from which FA was calculated) using either a TECAN Infinite M1000 Pro or BioTek Synergy 4 fluorometer. All experiments were performed with at least three technical replicates. FA data points were fit to a complete competitive binding model ([23]) to determine dissociation constants using in-house Python scripts (see Quantification and statistical analysis).
All titrations were performed in triplicate for rigor. Direct FA titrations were performed to determine the dissociation constants of the fluorescent probe toward SPOP constructs. Direct titration data were fit according to equation 6 in ([54]). Competition mode titration data were fit according to the fitting function in ([23]). Average dissociation constants and standard error from the mean for all constructs from competition experiments may be found in Table S4. The python scripts used in plotting and fitting may be found at https://github.com/idpemery/spop-pdx1.

[2] = biological target: f-Puc, fluorescein-labeled peptide of the SPOP substrate Puc (residues 91-106); assay: fluorescence polarisation; direct fluorescence anisotropy titration: SPOP construct (0.001-300 μM) added to 40 nM f-Puc; 50 mM sodium phosphate pH 6.5, 50 mM NaCl, 5 mM DTT, 1% BSA, 0.01% Triton X-100
[3] = tested on: SPOP–MATH substrate-binding groove; assay: 1H,15N HSQC NMR titration of 15N–SPOP–MATH with Pdx1 peptides; set-up: species or system human
Experimental: (§1) NMR data collection and analysis
(§2) NMR data were collected on Bruker Avance III 500, 600, or 850 MHz spectrometers equipped with TCI triple-resonance cryoprobes. All data collection and initial processing were carried out in TopSpin (Bruker). NMR experiments on all proteins were collected in 50 mM sodium phosphate, pH 6.5, 50 mM sodium chloride, 5 mM DTT, 0.01% sodium azide, and 5% D2O unless otherwise noted.
Addition of Pdx1 peptides into ^15N–SPOP–MATH was monitored by sensitivity-enhanced ^1H, ^15N HSQC. The peptides were mixed in a 4:1 peptide:SPOP mole ratio with between 0.1 and 0.2 mM ^15N–SPOP–MATH. Each experiment consisted of 16 scans and 2048 × 256 complex data points. Spectral comparison was carried out in NMRFAM-Sparky using the assigned ^15N-SPOP-MATH spectrum as a reference. Integrated peak intensities before and after the addition of peptide were compared and normalized within each dataset, and the percent change (1 − Ibound/Iunbound) was plotted on the surface of published SPOP–MATH cocrystal structures (PDB IDs: 3IVV or 6F8F) ([25], [33]) using PyMol (PyMOL Molecular Graphics System, Version 2.1.1, Schrödinger, LLC). In each case, surface coloring corresponds to thresholds of intensity change, where the greatest resonance intensity changes are reflected by the lightest color. […]

[4] = biological target: f-Puc (fluorescein-labeled Puc peptide); assay: fluorescence polarisation; direct fluorescence anisotropy: SPOP construct 0.001-300 μM added to 40 nM f-Puc; 50 mM sodium phosphate pH 6.5, 50 mM NaCl, 5 mM DTT, 1% BSA, 0.01% Triton X-100
[5] = biological target: T3, SPOP–MATH (human SPOP residues 28–166) (human, UniProt O43791 28-166); assay: fluorescence polarisation; competition fluorescence anisotropy: competitor ~0.01 μM to ~2 mM against 40 nM f-Puc and 6 μM SPOP–MATH; 50 mM sodium phosphate pH 6.5, 50 mM NaCl, 5 mM DTT, 1% BSA, 0.01% Triton X-100; complete competitive binding fit; settings: both partners purified
T3 construct: N-terminal Gly–Pro–Gly cloning artifact left after 3C protease; speckle-type POZ protein (SPOP), human, MATH domain, residues 28-166; Uniformly 15N (or 13C,15N) enriched for the NMR experiments in which it is the observed protein; also called monomeric SPOP–MATH; ^15N–SPOP–MATH; source: E. coli BL-21(DE3), purified (Ni-NTA, 3C protease, second Ni-NTA, Sephacryl S100 gel filtration); not shown: …

[6] = biological target: T4, SPOP28-359 (human SPOP residues 28-359) (human, UniProt O43791 28-359); assay: fluorescence polarisation; competition fluorescence anisotropy: competitor (~0.01 μM to ~2 mM) displaces 40 nM f-Puc from 6 μM SPOP-MATH or SPOP28-359; complete competitive binding fit; 50 mM sodium phosphate pH 6.5, 50 mM NaCl, 5 mM DTT, 1% BSA, 0.01% Triton X-100; settings: both partners purified
T4 construct: also called oligomeric SPOP; source: E. coli Rosetta BL-21(DE3), purified (Ni-NTA, TEV protease, second Ni-NTA, Superdex 200); not shown: His, N-terminal, cleaved; SUMO, N-terminal, cleaved

[7] = biological target: T5, SPOP-MATH (human SPOP residues 28-166) (human, UniProt O43791 28-166); assay: as above; settings: both partners purified
T5 construct: N-terminal Gly-Pro-Gly cloning artefact left after 3C protease; speckle-type POZ protein (SPOP), human, MATH domain, residues 28-166; uniformly 15N-labelled for the NMR experiments; also called 15N-SPOP-MATH; source: E. coli BL-21(DE3), purified (Ni-NTA, 3C protease, second Ni-NTA, Sephacryl S100); not shown: GST, N-terminal, cleaved; His6, N-terminal, cleaved

[8] = biological target: T2, SPOP–MATH (residues 28–166); assay: (HACA)CON NMR of 13C,15N–Pdx1-C with SPOP–MATH; type: binding; settings: 13C direct-detect (HACA)CON, 500 MHz, 25 °C, pH 6.5
Experimental: as §1, §2
Addition of SPOP–MATH into ^13C, ^15N–Pdx1-C was monitored by ^13C direct-detect (HACA)CON experiments ([44]) consisting of 16 scans and 1024 × 128 complex data points. SPOP–MATH was added to ^13C, ^15N–Pdx1-C such that the final concentrations were 0.35 mM and 0.37 mM, respectively. Peaks from each spectrum were integrated and used to calculate a percent intensity change in Pdx1-C resonances after binding of SPOP–MATH. SPOP28–359 was added to ^13C, ^15N–Pdx1-C at a 4-fold molar excess and detected by HSQC or (HACA)CON. Line broadening precluded residue-specific analysis of SPOP28–359 and Pdx1-C.

[9] = biological target: T6, SPOP_(28–359) (human SPOP residues 28–359) (human, UniProt O43791 28-359); assay: fluorescence polarisation; competition fluorescence anisotropy: competitor against 40 nM f-Puc and 6 μM SPOP_(28–359); 50 mM sodium phosphate pH 6.5, 50 mM NaCl, 5 mM DTT, 1% BSA, 0.01% Triton X-100; complete competitive binding fit; settings: both partners purified
T6 construct: also called His–SUMO–SPOP (before cleavage); source: E. coli Rosetta BL-21(DE3), purified (Ni-NTA, TEV protease, second Ni-NTA, Superdex 200); not shown: His, N-terminal, cleaved; SUMO, N-terminal, cleaved
T6 sequence (O43791 28-359): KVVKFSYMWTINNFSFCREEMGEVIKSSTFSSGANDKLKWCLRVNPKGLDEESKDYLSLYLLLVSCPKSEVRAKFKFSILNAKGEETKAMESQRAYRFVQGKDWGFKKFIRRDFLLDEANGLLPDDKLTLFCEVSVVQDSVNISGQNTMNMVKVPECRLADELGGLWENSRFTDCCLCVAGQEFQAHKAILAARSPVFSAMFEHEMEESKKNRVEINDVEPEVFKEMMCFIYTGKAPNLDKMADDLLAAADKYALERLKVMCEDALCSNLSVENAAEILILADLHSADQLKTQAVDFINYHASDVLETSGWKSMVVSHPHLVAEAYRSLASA

T2 sequence (O43791 28-166): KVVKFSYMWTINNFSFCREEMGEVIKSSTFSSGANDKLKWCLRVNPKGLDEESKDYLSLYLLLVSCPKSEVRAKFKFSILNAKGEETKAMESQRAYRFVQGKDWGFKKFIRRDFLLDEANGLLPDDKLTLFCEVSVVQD
T5 sequence (O43791 other isoform, or with tags, fused parts or gaps): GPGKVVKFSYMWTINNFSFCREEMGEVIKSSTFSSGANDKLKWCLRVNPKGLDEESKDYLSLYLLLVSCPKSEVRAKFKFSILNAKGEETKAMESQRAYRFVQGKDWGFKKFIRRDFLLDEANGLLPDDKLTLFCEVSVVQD
T4 sequence (O43791 28-359): as the sequence (O43791 28-359) above
T3 sequence (O43791 other isoform, or with tags, fused parts or gaps): as the sequence (O43791 other isoform, or with tags, fused parts or gaps) above
T1 sequence (O43791 28-359): as the sequence (O43791 28-359) above

## ENLACDEVTSTTSSST [Puc, reference compound]
SPOP28–359
  Kd: 2.6 ± 1 µM
[1]; 40 nM f-Puc, 6 μM SPOP–MATH, 50 mM sodium phosphate pH 6.5, 50 mM NaCl, 5 mM DTT, 1% BSA, 0.01% Triton X-100, complete competitive binding model, ± standard deviation of three independent replicates (Table S4)
  Kd: 2.6 ± 0.4 µM

## SPOP-MATH (human SPOP residues 28-166) (from UniProt O43791 28-166) (domain or fragment)
[2]
  Kd: 2.62 µM and 2.55 µM

## Ac-GVAEPEQDCAVTSGEELLALPP [Pdx1–SBM1, SB motif 1 peptide of Pdx1 (residues 224–236)]
[3]; SBM1 and SBM2 peptides added to 15N-SPOP-MATH in equimolar ratios
  relative SB affinity from mixed-peptide NMR: higher SB affinity of Pdx1–SBM1 than Pdx1–SBM2
[3]; peptide:15N-SPOP–MATH 4:1, 0.1–0.2 mM 15N–SPOP–MATH, 50 mM sodium phosphate pH 6.5, 50 mM NaCl, 5 mM DTT
  HSQC spectral changes in SPOP–MATH: spectral changes are primarily localized to the substrate-binding groove

## SPOP28-359 (human SPOP residues 28-359) (from UniProt O43791 28-359) (domain or fragment)
[2]
  Kd: 2.55 µM and 2.62 µM

## SPOP–MATH (human SPOP residues 28–166) (from UniProt O43791 28-166) (domain or fragment)
[4]
  Kd: 2.6 µM

B1: Pdx1–SBM1f peptide (Pdx1 residues 224–234) (peptide)
peptide: EQDCAVTSGEE
notes: human Pdx1 residues 224-234, shorter SBM1 peptide used for fluorescence anisotropy; source: synthetic peptide (Tufts University Core Facility, HPLC purified)
[5]
  Kd: 140 µM

B2: Pdx1-C (C-terminal intrinsically disordered region of human Pdx1) (domain or fragment)
chain: GPGWEDKKRGGGTAVGGGGVAEPEQDCAVTSGEELLALPPPPPPGGAVPPAAPVAAREGRLPPGLSASPQPSSVAPRRPQEPR
notes: N-terminal Gly-Pro-Gly cloning artefact left after 3C protease; pancreatic and duodenal homeobox 1 (Pdx1), human, amino acids 205-283 by the methods; the exogenous tryptophan may be what is counted as residue 204 (surmise); also called 13C,15N-Pdx1-C; source: E. coli BL-21(DE3), purified (Ni-NTA, 3C protease, second Ni-NTA, heat, anion exchange flow-through); not shown: GST, N-terminal, cleaved; …
[6]
  Kd: 3.5 µM
[7]
  Kd: 32 µM

B3: Pdx1-C: recombinant human Pdx1 C-terminal intrinsically disordered region (residues 204–283) (protein)
chain: B2 chain
modifications: left off: GST, N-terminal, cleaved | His6, N-terminal, cleaved
[1]; Fig. 5 and Table S4
  apparent affinity for SPOP–MATH, in words: higher apparent affinity for SPOP–MATH than the strongest individual SB motif alone
[8]
  resonance intensity loss in Pdx1-C on addition of SPOP-MATH: marked resonance intensity loss in two specific locations: amino acids 220 to 235 (highlighted in teal) and amino acids 265 to 275

B4: Pdx1-C (C-terminal intrinsically disordered region of human Pdx1) (domain or fragment)
chain: B2 chain
notes: N-terminal Gly–Pro–Gly cloning artifact left after 3C protease; pancreatic and duodenal homeobox 1 (Pdx1), human, amino acids 205-283 (methods); The results' 204–283 may count the added tryptophan as position 204; 13C,15N enriched for NMR; also called ^13C, ^15N-Pdx1-C; Pdx1 C terminus; source: E. coli BL-21(DE3), purified (Ni-NTA, 3C protease, second Ni-NTA, heat, anion exchange flow-through); …
[9]
  fold enhancement in binding affinity compared with SPOP–MATH: ~10 fold

B5: Puc peptide (residues 91-106), unlabeled (peptide)
peptide: ENLACDEVTSTTSSST
notes: puckered protein (Puc), residues 91-106; also called dark Puc peptide; unlabeled Puc peptide; source: synthetic peptide (Tufts University Core Facility, HPLC purified)
[6]
  Kd: 2.6 µM
[7]
  Kd: 2.6 µM
